Laboratory results: PMC12376665

Biological target: SlAVT6A (split-ubiquitin bait fusion) (tomato (Solanum lycopersicum))
Sequence (main, as listed by the source): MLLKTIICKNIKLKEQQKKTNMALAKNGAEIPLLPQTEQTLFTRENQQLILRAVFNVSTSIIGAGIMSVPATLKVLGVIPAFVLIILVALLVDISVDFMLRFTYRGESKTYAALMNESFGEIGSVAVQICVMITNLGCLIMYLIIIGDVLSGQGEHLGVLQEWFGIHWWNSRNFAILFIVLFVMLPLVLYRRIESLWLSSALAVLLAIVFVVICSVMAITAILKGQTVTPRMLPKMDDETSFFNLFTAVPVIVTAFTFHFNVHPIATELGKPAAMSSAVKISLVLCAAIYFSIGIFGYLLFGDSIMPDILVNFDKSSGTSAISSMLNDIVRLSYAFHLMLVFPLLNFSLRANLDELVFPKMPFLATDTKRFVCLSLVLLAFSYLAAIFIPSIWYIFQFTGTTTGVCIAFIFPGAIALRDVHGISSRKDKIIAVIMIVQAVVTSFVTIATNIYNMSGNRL

amino acid content in the liquid culture of yeast co-expressing SlAVT6A and SlAVT6B, relative to SlAVT6A expressed alone: 21.8% | efflux activity for amino acids in yeast co-expressing SlAVT6A and SlAVT6B, compared to only SlAVT6A expressing: 65%
Substance: SlAVT6B (split-ubiquitin prey fusion) (from UniProt A0A3Q7FT69 1-472) (natural protein)
